Results: US8436159B2, “Glyphosate resistant class I 5-endolpyruvylshikimate-3-phosphate synthase (EPSPS)” (Monsanto Technology LLC, priority 2003, dated 2013)
Numbering of substitutions follows the chain as printed. Names may count otherwise.

Columns and labels:
[1] = test system: E. coli EPSPS, native; details: read-out: apparent Km for PEP; native enzyme; cited from earlier work
[2] = test system: E. coli EPSPS variant, alanine for the glycine at position 96 (G96A); details: read-out: apparent Km for PEP; glyphosate-resistant isolate; cited from earlier work
[3] = target: T1, maize (Zea mays) class I EPSPS, wild type (WT), pMON70461, DNA SEQ ID NO:3 (Zea mays, UniProt O24566); test: EPSPS steady-state kinetics, wild-type maize EPSPS; format: biochemical
T1 construct: pMON70461
T1 sequence (O24566 with tags, fused parts or gaps): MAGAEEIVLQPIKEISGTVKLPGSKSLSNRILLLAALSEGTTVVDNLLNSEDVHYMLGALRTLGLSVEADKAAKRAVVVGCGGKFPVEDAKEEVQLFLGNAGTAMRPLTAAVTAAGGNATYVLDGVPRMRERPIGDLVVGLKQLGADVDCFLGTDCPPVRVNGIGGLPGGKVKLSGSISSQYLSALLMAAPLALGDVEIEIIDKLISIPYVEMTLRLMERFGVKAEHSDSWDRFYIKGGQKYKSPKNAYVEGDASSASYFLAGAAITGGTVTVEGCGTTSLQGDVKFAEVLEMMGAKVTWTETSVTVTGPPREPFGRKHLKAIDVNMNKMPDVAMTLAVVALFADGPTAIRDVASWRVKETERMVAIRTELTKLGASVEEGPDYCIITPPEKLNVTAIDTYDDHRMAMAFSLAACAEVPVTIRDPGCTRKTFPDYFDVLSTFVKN
Experimental: The wild type and variant EPSPS coding sequences were cloned into a pET-19b base vector (Novagen, Madison, Wis.). The plant (maize) class I EPSPS variants so created were assigned pMON plasmid numbers (Table 2). The variant EPSPS proteins were purified from the E. coli host using the protocols outlined in the pET system manual, 9th edition (Novagen) or by the following method. A single colony or a few microliters from a glycerol stock was inoculated into 4 mL LB medium containing 0.1 mg/mL carbenicillin antibiotic. The culture was incubated with shaking at 37 C for 4 hours. The cultures were stored at 4° C. overnight. The following morning, 1 mL of the overnight culture was used to inoculate 100 mL of fresh LB medium containing 0.1 mg/mL carbenicillin. The cultures were incubated with shaking at 37 C for 4-5 hours, then the cultures were placed at 4° C. for 5-10 minutes. The cultures were then induced with IPTG (1 mM final concentration) and incubated with shaking at 30 C for 4 hours or 20° C. overnight. The cells were harvested by centrifugation at 7000 rpm for 20 minutes at 4° C. The supernatant was removed and the cells were frozen at −70° C. until further use. The proteins were extracted by resuspending the cell pellet in BugBuster reagent (Novagen) using 5 mL reagent per gram of cells. Benzonase (125 Units) was added to the resuspension and the cell suspension was then incubated on a rotating mixer for 20 minutes at room temperature. The cell debris was removed by centrifugation at 10,000 rpm for 20 minutes at room temperature. The supernatant was passed through a 0.45 μm syringe-end filter and transferred to a fresh tube. A pre-packed columns containing 1.25 mL of His-Bind resin was equilibrated with 10 mL of 5 mM imidazole, 0.5 M NaCl, 20 mM Tris-HCl pH 7.9 (1× Binding Buffer). The column was then loaded with the prepared cell extract. After the cell extract had drained, the column was then washed with 10 mL of 1× Binding Buffer, followed with 10 mL of 60 mM imidazole, 0.5 M NaCl, 20 mM Tris-HCl pH 7.9 (1× Wash Buffer). […]

[4] = substrate: C=C(OP(=O)(O)O)C(=O)O; test: EPSPS steady-state kinetics, TIPA variant; format: biochemical, maize (Zea mays); details: other: pH 7.0, 1 mM shikimate-3-phosphate, Table 2
Excerpt: The double variants of the present invention were made using pMON58452 (FIG. 5) as the template. This pMON58452 EPSPS gene template contains the maize EPSPS double variant T102I, P106T (TIPT) that was constructed by mutagenesis of pMON70467 with the mutagenesis primers mEmut-9-U and mEmut-10-L. The various mutagenesis primer sequences were designed and then were synthesized by Invitrogen Corp., Custom Primers and used in combination in a PCR to create the variant EPSPS coding sequences. The PCR was set up in a 50 μl reaction in the following manner: dH2O 38 μl; 2 mM dNTP 1 μL; 10× buffer 5 μL; pMON58452 1 μL (10 ng); primer-U 2 μL; primer-L 2 μL; pfu Turbo enzyme 1 μL. PCR was carried out on a MJ Research PTC-200 thermal cycler using the following program: Step 1—94° C. for 30 seconds; Step 2—94° C. for 30 seconds; Step 3—55° C. for 1 minute; Step 4—68° C. for 14 minute; Step 5—go to step 2, 16 times; Step 6—End. At the end of the PCR, 1 μl of the restriction enzyme DpnI was added to each 50 μl of PCR reaction and the mixture was incubated at 37° C. for 1 hour. The proline (106) amino acid codon of pMON58452 was substituted in subsequent steps to provide additional variants that include TWO (primer P106G-U, SEQ ID NO:14 and -L, SEQ ID NO:15), TIPA (primer P106A-U, SEQ ID NO:16 and -L, SEQ ID NO:17), TIPV (primer P106V-U, SEQ ID NO:18 and -L, SEQ ID NO:19), TIPL (primer P106L-U, SEQ ID NO:20 and -L, SEQ ID NO:21), TIPI (primer P106I-U, SEQ ID NO:22 and -L, SEQ ID NO:23), TIPM (primer P106M-U, SEQ ID NO:24 and -L, SEQ ID NO:25), and TIPC (primer P106C-U, SEQ ID NO:26 and -L, SEQ ID NO:27). The double variants of the gene encoding the EPSPS protein were generated using the PCR conditions described above.
The wild type and variant EPSPS coding sequences were cloned into a pET-19b base vector (Novagen, Madison, Wis.). […] The variant EPSPS proteins were purified from the E. coli host using the protocols outlined in the pET system manual, 9th edition (Novagen) or by the following method. […]

[5] = substrate: C=C(OP(=O)(O)O)C(=O)O; test: EPSPS steady-state kinetics, TIPI variant; format: biochemical, maize (Zea mays); details: other: pH 7.0, 1 mM shikimate-3-phosphate
Excerpt: (§1) The double variants of the present invention were made using pMON58452 (FIG. 5) as the template. This pMON58452 EPSPS gene template contains the maize EPSPS double variant T102I, P106T (TIPT) that was constructed by mutagenesis of pMON70467 with the mutagenesis primers mEmut-9-U and mEmut-10-L. The various mutagenesis primer sequences were designed and then were synthesized by Invitrogen Corp., Custom Primers and used in combination in a PCR to create the variant EPSPS coding sequences. The PCR was set up in a 50 μl reaction in the following manner: dH2O 38 μl; 2 mM dNTP 1 μL; 10× buffer 5 μL; pMON58452 1 μL (10 ng); primer-U 2 μL; primer-L 2 μL; pfu Turbo enzyme 1 μL. PCR was carried out on a MJ Research PTC-200 thermal cycler using the following program: Step 1—94° C. for 30 seconds; Step 2—94° C. for 30 seconds; Step 3—55° C. for 1 minute; Step 4—68° C. for 14 minute; Step 5—go to step 2, 16 times; Step 6—End. At the end of the PCR, 1 μl of the restriction enzyme DpnI was added to each 50 μl of PCR reaction and the mixture was incubated at 37° C. for 1 hour. […]

[6] = substrate: C=C(OP(=O)(O)O)C(=O)O; test: EPSPS steady-state kinetics, TIPM variant; format: biochemical, maize (Zea mays); details: other: pH 7.0, 1 mM shikimate-3-phosphate
Experimental: (§2) The variant EPSPS proteins were purified from the E. coli host using the protocols outlined in the pET system manual, 9th edition (Novagen) or by the following method. A single colony or a few microliters from a glycerol stock was inoculated into 4 mL LB medium containing 0.1 mg/mL carbenicillin antibiotic. The culture was incubated with shaking at 37 C for 4 hours. The cultures were stored at 4° C. overnight. The following morning, 1 mL of the overnight culture was used to inoculate 100 mL of fresh LB medium containing 0.1 mg/mL carbenicillin. The cultures were incubated with shaking at 37 C for 4-5 hours, then the cultures were placed at 4° C. for 5-10 minutes. The cultures were then induced with IPTG (1 mM final concentration) and incubated with shaking at 30 C for 4 hours or 20° C. overnight. The cells were harvested by centrifugation at 7000 rpm for 20 minutes at 4° C. The supernatant was removed and the cells were frozen at −70° C. until further use. The proteins were extracted by resuspending the cell pellet in BugBuster reagent (Novagen) using 5 mL reagent per gram of cells. Benzonase (125 Units) was added to the resuspension and the cell suspension was then incubated on a rotating mixer for 20 minutes at room temperature. The cell debris was removed by centrifugation at 10,000 rpm for 20 minutes at room temperature. […]

[7] = substrate: C=C(OP(=O)(O)O)C(=O)O; test: EPSPS steady-state kinetics, TIPT variant; format: biochemical, maize (Zea mays); details: other: pH 7.0, 1 mM shikimate-3-phosphate
Excerpt: as §1

[8] = substrate: C=C(OP(=O)(O)O)C(=O)O; test: EPSPS steady-state kinetics, TIPV variant; format: biochemical, maize (Zea mays); details: other: pH 7.0, 1 mM shikimate-3-phosphate
Experimental: as §2

[9] = substrate: C=C(OP(=O)(O)O)C(=O)O; test: EPSPS steady-state kinetics, TIPG variant; format: biochemical, maize (Zea mays); details: other: pH 7.0, 1 mM shikimate-3-phosphate
Excerpt: as §1

[10] = substrate: C=C(OP(=O)(O)O)C(=O)O; test: purified protein, by the assay type; details: other: pH 7.0, 1 mM shikimate-3-phosphate
Excerpt: as §1

[11] = substrate: C=C(OP(=O)(O)O)C(=O)O; test: EPSPS steady-state kinetics, TIPS variant; format: biochemical, maize (Zea mays); details: other: pH 7.0, 1 mM shikimate-3-phosphate
Excerpt: Mutations were made using plant EPSPS DNA coding sequence template as an example of class I EPSPSs. […] All the variants were made using the PCR-based QuickChange™ Site-directed Mutagenesis Kit (Stratagene, La Jolla, Calif., Cat. No. 200518) following the manufactures instructions. The DNA sequence of each mutagenesis primer was designed, and then ordered from Invitrogen Corp., Custom Primers (Carlsbad, Calif.). Mutagenesis of a maize wild-type DNA molecule (SEQ ID NO:3) encoding the EPSPS enzyme was performed using pMON70461 (FIG. 3) as the template. pMON70461 contains the unmodified wild-type maize EPSPS coding sequence. […] The single EPSPS variants were created by mutagenesis of the maize wild-type EPSPS DNA coding sequence as controls for measuring the efficacy of the double variant EPSPSs.
The wild type and variant EPSPS coding sequences were cloned into a pET-19b base vector (Novagen, Madison, Wis.). […] The variant EPSPS proteins were purified from the E. coli host using the protocols outlined in the pET system manual, 9th edition (Novagen) or by the following method. […] Protein concentration was determined using Bio-Rad protein assay (Bio-Rad Laboratories, CA). […] The samples were read at OD595 after ˜5 minutes using a spectraMAX 250 plate reader (Molecular Devices Corporation, Sunnyvale, Calif.) and compared to the standard curve. […]

C=C(OP(=O)(O)O)C(=O)O [PEP, phosphoenolpyruvate]
Km [1]: 10 µM
Km [2]: 220 µM
kcat ([3]; Table 5): 8.8 ± 0.5 s⁻¹
Km ([3]; pH 7.0, 1 mM shikimate-3-phosphate, Table 2, read-out: Km-PEP): 27 ± 4 µM

B1: maize (Zea mays) class I EPSPS variant TIPA (T102I, P106A), pMON42481, ZmTIPA SEQ ID NO:39 (Zea mays; P106A/T102I) (protein)
chain: AGAEEIVLQPIKEISGTVKLPGSKSLSNRILLLAALSEGTTVVDNLLNSEDVHYMLGALRTLGLSVEADKAAKRAVVVGCGGKFPVEDAKEEVQLFLGNAGIAMRALTAAVTAAGGNATYVLDGVPRMRERPIGDLVVGLKQLGADVDCFLGTDCPPVRVNGIGGLPGGKVKLSGSISSQYLSALLMAAPLALGDVEIEIIDKLISIPYVEMTLRLMERFGVKAEHSDSWDRFYIKGGQKYKSPKNAYVEGDASSASYFLAGAAITGGTVTVEGCGTTSLQGDVKFAEVLEMMGAKVTWTETSVTVTGPPREPFGRKHLKAIDVNMNKMPDVAMTLAVVALFADGPTAIRDVASWRVKETERMVAIRTELTKLGASVEEGPDYCIITPPEKLNVTAIDTYDDHRMAMAFSLAACAEVPVTIRDPGCTRKTFPDYFDVLSTFVKN
notes: pMON42481
Km [4]: 10.2 ± 1.1 µM
kcat [4]: 2.1 ± 0.1 s⁻¹
kcat/Km [4]: 0.2 µM^−1s^−1

B2: maize (Zea mays) class I EPSPS variant TIPI (T102I, P106I), pMON42486 (Zea mays; P106I/T102I) (protein)
chain: B1 chain with A106I
notes: pMON42486
Km [5]: 60.3 ± 2.8 µM

B3: maize (Zea mays) class I EPSPS variant TIPM (T102I, P106M), pMON42484 (Zea mays; P106M/T102I) (protein)
chain: B1 chain with A106M
notes: pMON42484
Km [6]: 143.3 ± 12.6 µM

B4: maize (Zea mays) class I EPSPS variant TIPT (T102I, P106T), pMON58452, ZmTIPT SEQ ID NO:38 (Zea mays; P106T/T102I) (protein)
chain: B1 chain with A106T
notes: pMON58452
Km [7]: 11.2 ± 1.8 µM

B5: maize (Zea mays) class I EPSPS variant TIPV (T102I, P106V), pMON42482 (Zea mays; P106V/T102I) (protein)
chain: B1 chain with A106V
notes: pMON42482
Km [8]: 109.3 ± 12.9 µM

B6: maize (Zea mays) class I EPSPS variant TIPG (T102I, P106G), pMON42480 (Zea mays; P106G/T102I) (protein)
chain: B1 chain with A106G
notes: pMON42480
Km [9]: 23.0 ± 3.7 µM

B7: maize (Zea mays) class I EPSPS variant TIPC (T102I, P106C), pMON42485 (Zea mays; P106C/T102I) (protein)
chain: B1 chain with A106C
Km [10]: 47.0 ± 4.0 µM

B8: maize (Zea mays) class I EPSPS variant TIPS (T102I, P106S), pMON70462 (Zea mays; P106S/T102I) (protein)
chain: B1 chain with A106S
notes: pMON70462
Km [11]: 10.6 ± 1.6 µM
